Patent publication US6884600 (MEDICAL RESEARCH COUNCIL LONDON, dated 2005)

B8: β isoform of PP1c released from rabbit skeletal muscle PP1G (enzyme, UniProt P62143 2-327, looked up)
chain: ADGELNVDSLITRLLEVRGCRPGKIVQMTEAEVRGLCIKSREIFLSQPILLELEAPLKICGDIHGQYTDLLRLFEYGGFPPEANYLFLGDYVDRGKQSLETICLLLAYKIKYPENFFLLRGNHECASINRIYGFYDECKRRFNIKLWKTFTDCFNCLPIAAIVDEKIFCCHGGLSPDLQSMEQIRRIMRPTDVPDTGLLCDLLWSDPDKDVQGWGENDRGVSFTFGADVVSKFLNRHDLDLICRAHQVVEDGYEFFAKRQLVTLFSAPNYCGEFDNAGGMMSVDETLMCSFQILKPSEKKAKYQYGGLNSGRPVTPPRTANPPKKR
notes: mature; also called PP1 catalytic subunit

What was measured:
[1] = biological target: T1, myosin from chicken gizzard, dephosphorylated form (chicken, UniProt P10587 2-1979; P02612 2-172; P02607 2-151); test: summary of the co-sedimentation experiments
T1 construct: mature; Native protein pelleted by centrifugation; 1 µM in terms of heavy chains; also called myosin dimer
T1 sequence (P10587 2-1979, chain 1 of 3): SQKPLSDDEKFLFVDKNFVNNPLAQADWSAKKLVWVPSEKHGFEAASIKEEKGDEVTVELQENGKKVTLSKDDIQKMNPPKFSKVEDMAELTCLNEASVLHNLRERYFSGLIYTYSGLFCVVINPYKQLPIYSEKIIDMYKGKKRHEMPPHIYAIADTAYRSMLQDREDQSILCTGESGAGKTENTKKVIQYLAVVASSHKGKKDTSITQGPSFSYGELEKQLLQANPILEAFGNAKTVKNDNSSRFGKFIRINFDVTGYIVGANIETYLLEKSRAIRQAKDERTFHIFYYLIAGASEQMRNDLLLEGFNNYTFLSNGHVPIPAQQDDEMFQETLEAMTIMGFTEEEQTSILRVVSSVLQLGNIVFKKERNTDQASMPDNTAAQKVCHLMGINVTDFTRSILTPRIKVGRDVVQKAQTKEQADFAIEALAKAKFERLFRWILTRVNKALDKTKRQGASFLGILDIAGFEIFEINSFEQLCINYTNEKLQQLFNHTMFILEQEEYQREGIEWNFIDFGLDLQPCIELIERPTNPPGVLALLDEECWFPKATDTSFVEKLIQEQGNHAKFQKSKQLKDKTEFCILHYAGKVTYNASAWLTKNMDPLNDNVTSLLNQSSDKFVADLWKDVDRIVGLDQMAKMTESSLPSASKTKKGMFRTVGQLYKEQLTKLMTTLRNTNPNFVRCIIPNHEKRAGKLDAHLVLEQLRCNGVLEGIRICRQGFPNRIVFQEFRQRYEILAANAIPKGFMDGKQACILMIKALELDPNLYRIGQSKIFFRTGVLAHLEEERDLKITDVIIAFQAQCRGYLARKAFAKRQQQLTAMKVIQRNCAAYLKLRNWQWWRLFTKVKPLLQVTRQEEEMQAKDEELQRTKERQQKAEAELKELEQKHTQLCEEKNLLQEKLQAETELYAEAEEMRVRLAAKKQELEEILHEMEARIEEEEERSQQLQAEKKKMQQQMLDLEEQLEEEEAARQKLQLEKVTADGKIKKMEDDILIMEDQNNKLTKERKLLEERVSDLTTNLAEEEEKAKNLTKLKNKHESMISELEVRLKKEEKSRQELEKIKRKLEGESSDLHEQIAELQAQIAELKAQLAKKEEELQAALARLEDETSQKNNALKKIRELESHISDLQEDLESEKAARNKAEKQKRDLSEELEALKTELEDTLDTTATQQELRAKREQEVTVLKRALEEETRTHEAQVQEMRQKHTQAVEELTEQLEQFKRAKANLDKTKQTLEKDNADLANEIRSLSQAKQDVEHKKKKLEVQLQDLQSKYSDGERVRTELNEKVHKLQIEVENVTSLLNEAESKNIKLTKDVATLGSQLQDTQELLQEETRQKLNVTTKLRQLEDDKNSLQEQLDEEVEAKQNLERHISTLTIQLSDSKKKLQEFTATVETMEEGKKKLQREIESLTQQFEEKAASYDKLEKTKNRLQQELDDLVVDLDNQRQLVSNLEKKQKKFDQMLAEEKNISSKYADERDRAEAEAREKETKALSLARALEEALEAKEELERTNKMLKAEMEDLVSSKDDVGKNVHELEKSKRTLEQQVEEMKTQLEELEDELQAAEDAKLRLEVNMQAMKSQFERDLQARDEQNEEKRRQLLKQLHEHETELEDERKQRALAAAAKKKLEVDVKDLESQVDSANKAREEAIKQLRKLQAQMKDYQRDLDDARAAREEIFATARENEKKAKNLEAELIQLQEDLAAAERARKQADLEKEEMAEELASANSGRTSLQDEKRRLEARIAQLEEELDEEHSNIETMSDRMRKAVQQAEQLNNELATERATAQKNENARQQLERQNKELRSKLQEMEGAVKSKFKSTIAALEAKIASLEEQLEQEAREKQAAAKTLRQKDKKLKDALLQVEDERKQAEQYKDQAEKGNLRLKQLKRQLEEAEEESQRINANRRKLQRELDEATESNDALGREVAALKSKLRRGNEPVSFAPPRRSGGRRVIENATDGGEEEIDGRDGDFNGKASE
T1 sequence (P02612 2-172, chain 2 of 3): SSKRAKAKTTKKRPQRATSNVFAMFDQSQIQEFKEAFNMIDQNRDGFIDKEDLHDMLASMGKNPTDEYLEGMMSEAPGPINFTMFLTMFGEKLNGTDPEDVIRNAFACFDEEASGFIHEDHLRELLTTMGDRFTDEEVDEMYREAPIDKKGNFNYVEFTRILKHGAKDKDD
T1 sequence (P02607 2-151, chain 3 of 3): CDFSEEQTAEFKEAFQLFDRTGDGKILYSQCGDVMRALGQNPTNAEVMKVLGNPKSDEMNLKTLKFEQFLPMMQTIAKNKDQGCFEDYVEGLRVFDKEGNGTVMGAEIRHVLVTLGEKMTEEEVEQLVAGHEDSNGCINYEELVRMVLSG
Procedure: (§1) (A); PP1_M, $M110$-(M1-S477) and GST-$M110$-(M377-K976), each at 30 nM were incubated for 15 min at 0° C. with 1 μM myosin and centrifuged. The supernatants (S), resuspended pellets (P) and the suspension before centrifugation (T, total) were electrophoresed on 12% SDS/polyacrylamide gels, transferred to nitrocellulose and immunoblotted with antibodies raised against the PP1_M holoenzyme. No protein was pelleted in the absence of myosin (not shown). The positions of the marker proteins myosin heavy chain (200 kDa), glycogen phosphorylase (97 kDa), bovine serum albumin (66 kDa), ovalbumin (43 kDa), carbonic anhydrase (29 kDa) and soybean trypsin inhibitor (20 kDa) are indicated. […] A small amount of $M110$-(R714-I1004) pelleted in the absence of myosin. […] No other protein was pelleted in the absence of myosin.
(§2) Myosin binding assays. Myosin (0.5 mg/ml, 1 µM in terms of myosin heavy chains) in 10 mM Hepes pH 7.5, 50 mM KCl, 5 mM MgCl2, 0.1% (by vol) 2-mercaptoethanol, was mixed with PP1_M, M$21$ subunit, or fragments of the M$110$ and M$21$ subunits, at the concentrations indicated in figure legends. […] Aliquots of the supernatant, the resuspended pellet and the suspension before centrifugation were either assayed for myosin P-light chain phosphatase activity or denatured in SDS and analysed by SDS/polyacrylamide gel electrophoresis.

[2] = biological target: T1, myosin from chicken gizzard, …; test: co-sedimentation with myosin
MBP-M110-(K933-I1004) = biological target: T2, MBP-M110-(K933-I1004) (chicken, UniProt Q90623 933-1004, digoxigenin label when used as probe); test: Far Western, blot probed with digoxigenin-labelled MBP-M110-(K933-I1004)
T2 construct: also called digoxigenin-labelled MBP-M110-(K933-I1004); digoxigenin-labelled M110-(K933-I1004)
T2 sequence: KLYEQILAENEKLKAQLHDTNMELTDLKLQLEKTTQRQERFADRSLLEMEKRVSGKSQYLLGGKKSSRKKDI
Procedure: A) GST-$M21$ 5 μg (track 1), $M21$ 5 μg (track 2), $M21$-(M1-L146) 5 μg (track 3), $M21$-(M1-E110) 20 μg (track 4) and $M21$-(E110-K186) 5 μg (track 5) were run on 16.5% polyacrylamide gels and stained with Coomassie Blue. The marker proteins ovalbumin (43 kDa) and carbonic anhydrase (29 kDa) are indicated. B) GST-$M21$ 0.5 μg (track 1), $M21$ 0.5 μg (track 2), $M21$-M1-L146) 0.5 μg (track 3), $M21$-(M1-E110) 5 μg (track 4) and $M21$-(E110-K186) 5 μg (track 5) were electrophoresed as in A) and after transfer to nitrocellulose the blots were probed with digoxigenin-labelled MBP-$M110$-(K933-I1004) (0.2 μg/Ml). C) same as B) except that, after electrophoresis, the proteins were transferred to nitrocellulose and probed with digoxigenin-labelled $M21$ subunit (0.2 μg/ml).

[3] = biological target: B8; test: cell-based or functional assay
[4] = biological target: T1, myosin from chicken gizzard, …; test: not described in Example 1
[5] = biological target: T1, myosin from chicken gizzard, …; test: co-sedimentation with myosin (as PP1M lacking M21)
Procedure: (§3) The PP1 catalytic subunit (PP1c), PP1_M, or PP1_M lacking the $M21$ subunit, $PP1_M(\Delta M21)$, each at 30 nM, were incubated for 15 min at 0° C. with 1 μM myosin and centrifuged (see Methods of Example 3). […] The results shown are the average (±S.E.M.) for three separate experiments each assayed in duplicate.
(§4) Myosin binding assays. Myosin (0.5 mg/ml, 1 µM in terms of myosin heavy chains) in 10 mM Hepes pH 7.5, 50 mM KCl, 5 mM MgCl2, 0.1% (by vol) 2-mercaptoethanol, was mixed with PP1_M, M$21$ subunit, or fragments of the M$110$ and M$21$ subunits, at the concentrations indicated in figure legends. After incubation for 15 min at 0° C., the solutions were centrifuged for 2 min at 13,000×g, the supernatants removed, and the pellets washed twice in 10 mM Hepes pH 7.5, 50 mM KCl, 5 mM MgCl2, 0.1% (by vol) 2-mercaptoethanol before resuspension in 50 mM Tris-HCl pH 7.5, 0.1 mM EGTA, 0.03% (by mass) Brij 35, 0.6 M NaCl, 0.1% (by vol) 2-mercaptoethanol. Aliquots of the supernatant, the resuspended pellet and the suspension before centrifugation were either assayed for myosin P-light chain phosphatase activity or denatured in SDS and analysed by SDS/polyacrylamide gel electrophoresis.

[6] = biological target: T1, myosin from chicken gizzard, …; test: co-sedimentation, 30 nM with 1 µM myosin, immunoblot
Procedure: as §1, §2

[7] = biological target: PP1GL, glycogen-associated form of PP1 in rat hepatic glycogen-protein particles (rat); test: cell-based or functional assay
[8] = biological target: PP1M, myosin-associated form of PP1 from chicken gizzard (chicken, UniProt P62207 2-327); test: cell-based or functional assay
[9] = biological target: T1, myosin from chicken gizzard, …; test: co-sedimentation with myosin, phosphatase activity in pellet and supernatant
Procedure: as §3, §4

B1: M110-(R714-I1004), C-terminal 291 residues of the chicken gizzard M110 subunit (other)
chain: RSTRTREQENEEKEKEEKEKQDKEKQEEKKESETKDDDYRQRYSRTVEEPYHRYRPTSTSTSTSSTSSLSTSTSSLSSSSQLNRPNSLIGITSAYSRSGTKESEREGGKKEEEKEEDKSQPKSIRERRRPREKRRSTGVSFWTQDSDENEQEHQSDSEEGTNKKETQSDSLSRYDTGSLSVSSGDRYDSAQGRSGSQSYLEDRKPYCSRLEKEDSTDFKKLYEQILAENEKLKAQLHDTNMELTDLKLQLEKTTQRQERFADRSLLEMEKRVSGKSQYLLGGKKSSRKKDI
notes: Expressed from pT7-7
**Q.** Does B1 bind [1]?
**A.** binds

B2: GST-M110-(M1-E309), GST tag not cleaved (other)
chain: MKMADAKQKRNEQLKRWIGSETDLEPPVVKRQKTKVKFDDGAVFLAACSSGDTDEVLKLLHRGADINYANVDGLTALHQACIDDNVDMVKFLVENGANINQPDNEGWIPLHAAASCGYLDIAEFLIGQGAHVGAVNSEGDTPLDIAEEEAMEELLQNEVNRQGVDIEAARKEEERIMLRDARQWLNSGHISDVRHAKSGGTALHVAAAKGYTEVLKLLIQAGYDVNIKDYDGWTPLHAAAHWGKEEACRILVDNLCDMETVNKVGQTAFDVADEDILGYLEELQKKQNLLHSEKRDKKSPLIESTANMEA
notes: not shown: glutathione-S-transferase of vector pGEX-KG with the vector linker (thrombin site)
**Q.** Does B2 bind [2]?
**A.** no binding

B3: M21-(M1-E110), released from GST with thrombin (other)
chain: MSSLFTRSKEYTRSRKSQSDSPPSSPSPIAKTLRHERLSRLEAATTPATSDSYSDRASSRSSAYSRRENRLAALSSRAEEESNRDYKKLYESALSENQKLKSKLQEAQLEA
notes: not shown: the few vector residues left at the N terminus after thrombin cleavage of the modified pGEX fusion
**Q.** Does B3 bind (MBP-M110-(K933-I1004))?
**A.** no binding (tested: 0.2 µg/ml probe)

B4: M110-(M1-E309), released from GST with thrombin (other)
chain: GSPGMKMADAKQKRNEQLKRWIGSETDLEPPVVKRQKTKVKFDDGAVFLAACSSGDTDEVLKLLHRGADINYANVDGLTALHQACIDDNVDMVKFLVENGANINQPDNEGWIPLHAAASCGYLDIAEFLIGQGAHVGAVNSEGDTPLDIAEEEAMEELLQNEVNRQGVDIEAARKEEERIMLRDARQWLNSGHISDVRHAKSGGTALHVAAAKGYTEVLKLLIQAGYDVNIKDYDGWTPLHAAAHWGKEEACRILVDNLCDMETVNKVGQTAFDVADEDILGYLEELQKKQNLLHSEKRDKKSPLIESTANMEA
notes: Rat aorta M110 fragment; free GST was left in the solution after cleavage; also called M100-(M1-E309)
**Q.** B4 was tested. Which “MLC20 phosphatase activity of PP1c” value [3] did it give?
**A.** ~3 fold

**Q.** Does B4 bind [4]?
**A.** no binding

B5: M110 subunit of chicken gizzard PP1M, full length (other)
chain: MKMADAKQKRNEQLKRWIGSETDLEPPVVKRKKTKVKFDDGAVFLAACSSGDTEEVLRLLERGADINYANVDGLTALHQACIDDNVDMVKFLVENGANINQPDNEGWIPLHAAASCGYLDIAEYLISQGAHVGAVNSEGDTPLDIAEEEAMEELLQNEVNRQGVDIEAARKEEERIMLRDARQWLNSGHINDVRHAKSGGTALHVAAAKGYTEVLKLLIQARYDVNIKDYDGWTPLHAAAHWGKEEACRILVENLCDMEAVNKVGQTAFDVADEDILGYLEELQKKQNLLHSEKREKKSPLIESTANLDNNQTQKTFKNKETLIMEQEKNASSIESLEHEKADEEEEGKKDESSCSSEEEEDDDSESEAETDKAKTLANANTTSTQSASMTAPSVAGGQGTPTSPLKKFPTSTTKVSPKEEERKDESPASWRLGLRKTGSYGALAEITASKEAQKEKDSAGVIRSASSPRLSSSLDNKEKEKDGKGTRLAYVAPTIPRRLASTSDIDEKENRDSSASSIRSGSSYARRKWEEDVKKNSLNEGPTSLNTSYQRSGSFGRRQDDLVSSNVPSTASTVTSSAGLQKTLPASANTTTKSTTGSTSAGVQSSTSNRLWAEDSTEKEKDSVPTAVTVPVAPSVVNAAATTTAMTTATSGTVSSTSEVRERRRSYLTPVRDEESESQRKARSRQARQSRRSTQGVTLTDLQEAEKTIGRSRSTRTREQENEEKEKEEKEKQDKEKQEEKKESETKDDDYRQRYSRTVEEPYHRYRPTSTSTSTSSTSSLSTSTSSLSSSSQLNRPNSLIGITSAYSRSGTKESEREGGKKEEEKEEDKSQPKSIRERRRPREKRRSTGVSFWTQDSDENEQEHQSDSEEGTNKKETQSDSLSRYDTGSLSVSSGDRYDSAQGRSGSQSYLEDRKPYCSRLEKEDSTDFKKLYEQILAENEKLKAQLHDTNMELTDLKLQLEKTTQRQERFADRSLLEMEKRVSGKSQYLLGGKKSSRKKDI
notes: Native subunit, met as the M110 band of blotted PP1M or inside PP1M; also called 110 kDa subunit; Ch1
**Q.** Does B5 bind [5]?
**A.** binds

B6: GST-M110-(M377-K976), undegraded (other)
chain: MASVTNAHTASTQAAPAAVTTPTLSSNQGTPTSPVKKFPTSTTKISPKEEERKDESPASWRLGLRKTGSYGALAEITASKEAQKEKDTAGVIRSASSPRLSSSLDNKEKEKDNKGTRLAYVAPTIPRRLGSTSDIEEKENRESSNLRTSSSYTRRKWEDDLKKNSSINEGSTYHRSTSNRLWAEDSTEKEKDSAPTAATILVAPTVVSAAASSTTALTTTTAGTLSSTSEVRERRRSYLTPVRDEESESQRKARSRQARQSRRSTQGVTLTDLQEAEKTIGRSRSTRTREQENEEKDKEEKEKQDKEKQEEKKESEVSREDEYKQKYSRTYDETYARYRPVSTSSSSTPSSSSLSTLGSSLYASSQLNRPNSLVGITSAYSRGLTKDNEREGEKKEEEKEGEDKSQPKSIRERRRPREKRRSTGVSFWTQDSDENEQERQSDTEDGSSKRDTQTDSVSRYDSSSTSSSDRYDSLLGRSASYSYLEERKPYGSRLEKDDSTDFKKLYEQILAENEKLKAQLHDTNMELTDLKLQLEKATQRQERFADRSLLEMEKRERRALERRISEMEEELKMLPDLKADNQRLKDENGALIRVISKLSK
notes: also called C-terminal 600 residues of the M110 subunit from rat aorta; not shown: glutathione-S-transferase of vector pGEX-KG with the vector linker
**Q.** Does B6 bind [6]?
**A.** binds

B7: rabbit GM-(G63-T93) synthetic peptide (peptide)
peptide: GRRVSFADNFGFNLVSVKEFDTWELPSVSTT
**Q.** For B7, which “phosphorylase phosphatase activity of PP1GL” value [7] is on record?
**A.** 6 fold

**Q.** And the “phosphorylase phosphatase activity of PP1M at 10 µM peptide” value [8]?
**A.** ~7 fold

**Q.** Does B8 bind [9]?
**A.** no binding (tested: 30 nM with 1 µM myosin)
